Results published in article PMC6224377 (2018).

B1: GK-1E5 (antibody, V domains shown)
VH: EVQLVESGGGVVQPGRSLRLSCAASGFTFRSYGMHWVRQAPGKGLEWVAIIWYDGSKKYYTDSVQGRFTISRDNSKNTLYLQMNSLRAEDTAVYYCARPGIAMTGLDYWGQGTLVTVSS
VL: DIQLTQSPSTLSASVGDRVTITCRASQSISSWLAWYQQKPGKAPKLLIYKASSLESGVPSRFSGSGSGTEFTLTISSLQPDDFATYYCQQYNNYWTFGQGTKVEIK
B2: GK-5E1 (antibody, V domains shown)
VH: QVTLKESGGDVVQPGRSLRLSCAASGFTFRTYGMHWVRQAPGKGPEWVALIWYDGSKKYYADSVKGRFTISRDNSKNTLYLQMNSLRAEDTAVYYCVRVRFGELYFQHWGQGTLVTVSS
VL: not shown
B3: GK-5A1 (antibody, V domains shown)
VH: QVQLVESGGGVVQPGRSLRLSCAASGFTFSSYGMYWVRQAPGKGLEWVAVIWNDGSNKYYADSVKGRFTISRDNSKNTLYLQMNSLRAEDTAVYYCAREGSGWYDYYYGMDVWGQGTTVTVSS
VL: EIVLTQSPSTLSASVGDRVTITCRASQSISSWLAWYQQKPGKAPKLLIYKASSLESGVPSRFSGSGSGTEFTLTISSLQPDDFATYYCQQYNSYWTFGQGTKVDIK

Target: hROR2-ECD-Twin-Strep (soluble human ROR2 extracellular domain fused to a Twin-Strep-tag) (human, UniProt Q01974 34-403)
Sequence (Q01974 34-403): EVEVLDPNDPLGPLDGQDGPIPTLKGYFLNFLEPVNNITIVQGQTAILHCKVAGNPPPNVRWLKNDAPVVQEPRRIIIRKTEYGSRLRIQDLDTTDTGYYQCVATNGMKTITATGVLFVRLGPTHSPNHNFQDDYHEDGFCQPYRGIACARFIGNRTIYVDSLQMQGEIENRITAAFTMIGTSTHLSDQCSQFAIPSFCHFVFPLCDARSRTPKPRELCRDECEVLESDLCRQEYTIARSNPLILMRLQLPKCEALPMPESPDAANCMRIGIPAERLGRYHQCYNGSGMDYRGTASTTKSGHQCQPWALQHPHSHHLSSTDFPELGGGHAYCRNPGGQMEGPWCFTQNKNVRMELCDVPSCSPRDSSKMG
Test: SPR

Row | Binder | Kd [µM]
1 | B1 | 0.0807
2 | B2 | 0.0025
3 | B3 | 0.0613
